Consider four molecules from patent US20190330316A1 (published 2019).

B1: hu16G7VHv2b/hu16G7VLv2 (antibody, V domains shown)
VH: EVQLVQSGAEVVKPGASVKVSCKASGYTFTSSWIHWVRQRPGQGLEWIGEIYPNSGNTNYNEKFKGRVTLTRDISISTAYMELSRLTSDDTAVYYCARLGWLIPLDYWGQGTTVTVSS
VL: DIVLTQSPSSLAVSVGERATISCKSSQSLLDGNDQKNYLAWYQQKPGQSPKLLIYWASTRESGVPDRFSGSGSGTDFTLTISSLQAEDVAVYYCQQFYDYPWTFGGGTKLEIKR
B2: hu16G7VHv2a/hu16G7VLv2 (antibody, V domains shown)
VH: B1 VH with R67K, V68A, R72V
VL: B1 VL
B3: hu16G7VHv7/hu16G7VLv2 (antibody, V domains shown)
VH: B1 VH with S7P, V12K, R40A, I48M, L70M, R72V, T87R
VL: B1 VL
B4: chimeric 16G7 antibody (antibody, V domains shown)
VH: QVQLQQPGSVLVRPGASVKLSCKASGYTFTSSWIHWAKQRPGQGLEWIGEIYPNSGNTNYNEKFKGKATLTVDISSSTAYVDLTSLTSEDSAVYYCARLGWLIPLDYWGQGTTLIVSS
VL: B1 VL with T5S, R18K, A19V, I21M, I54M, S69T, Q85K, V89L

Substitutions are numbered along the chain they refer to.

Usually Kd stands for a measure of binding affinity in units of concentration.

Chain of recombinant human tau (P10636 other isoform, or with tags, fused parts or gaps): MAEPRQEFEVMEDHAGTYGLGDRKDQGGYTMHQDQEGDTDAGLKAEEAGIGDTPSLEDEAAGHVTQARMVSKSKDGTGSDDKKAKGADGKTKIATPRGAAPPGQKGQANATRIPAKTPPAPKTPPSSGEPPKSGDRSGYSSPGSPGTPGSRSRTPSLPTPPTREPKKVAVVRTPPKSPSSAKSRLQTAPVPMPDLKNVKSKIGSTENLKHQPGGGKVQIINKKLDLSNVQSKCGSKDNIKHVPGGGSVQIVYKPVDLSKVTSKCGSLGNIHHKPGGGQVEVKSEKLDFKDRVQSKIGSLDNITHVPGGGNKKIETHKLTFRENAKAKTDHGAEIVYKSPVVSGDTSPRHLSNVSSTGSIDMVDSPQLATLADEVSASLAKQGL

The assay concerns the target recombinant human tau (human, UniProt P10636 1-383). The assay can be described thus: SPR.
As for B1, the Kd stood at 303 pM. For B2 the value was 277 pM; for B3, 293 pM.

On to B4, for which the Kd turned out to be 187 pM.
